Measured values taken from patent publication US20220380478A1 (published 2022).

T1: FcγRIA (CD64) (UniProt P12314 16-292)
T1 chain: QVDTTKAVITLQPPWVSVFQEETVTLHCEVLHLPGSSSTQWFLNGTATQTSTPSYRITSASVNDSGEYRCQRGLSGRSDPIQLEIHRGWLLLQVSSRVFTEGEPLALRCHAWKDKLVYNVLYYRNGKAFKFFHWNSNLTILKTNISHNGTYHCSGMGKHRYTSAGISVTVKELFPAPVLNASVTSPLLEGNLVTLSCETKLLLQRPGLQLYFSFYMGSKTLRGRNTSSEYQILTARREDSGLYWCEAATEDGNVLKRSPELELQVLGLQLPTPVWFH

T2: CD32aH (FcγRIIaH) (UniProt P12318 34-217)
T2 chain: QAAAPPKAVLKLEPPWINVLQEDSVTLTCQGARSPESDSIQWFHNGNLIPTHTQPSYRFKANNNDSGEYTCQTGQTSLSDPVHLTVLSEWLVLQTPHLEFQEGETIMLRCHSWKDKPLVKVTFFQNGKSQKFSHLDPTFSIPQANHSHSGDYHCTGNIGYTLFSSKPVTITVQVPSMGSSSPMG

T3: CD32bF (FcγRIIbF) (UniProt P31994 43-217)
T3 chain: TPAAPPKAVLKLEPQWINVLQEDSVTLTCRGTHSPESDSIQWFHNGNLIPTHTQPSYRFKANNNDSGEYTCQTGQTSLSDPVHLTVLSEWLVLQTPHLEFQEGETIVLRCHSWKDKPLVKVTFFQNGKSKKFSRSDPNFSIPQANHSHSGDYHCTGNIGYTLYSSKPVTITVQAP

B1: TNX02 anti-CD154 monoclonal antibody (antibody)
heavy: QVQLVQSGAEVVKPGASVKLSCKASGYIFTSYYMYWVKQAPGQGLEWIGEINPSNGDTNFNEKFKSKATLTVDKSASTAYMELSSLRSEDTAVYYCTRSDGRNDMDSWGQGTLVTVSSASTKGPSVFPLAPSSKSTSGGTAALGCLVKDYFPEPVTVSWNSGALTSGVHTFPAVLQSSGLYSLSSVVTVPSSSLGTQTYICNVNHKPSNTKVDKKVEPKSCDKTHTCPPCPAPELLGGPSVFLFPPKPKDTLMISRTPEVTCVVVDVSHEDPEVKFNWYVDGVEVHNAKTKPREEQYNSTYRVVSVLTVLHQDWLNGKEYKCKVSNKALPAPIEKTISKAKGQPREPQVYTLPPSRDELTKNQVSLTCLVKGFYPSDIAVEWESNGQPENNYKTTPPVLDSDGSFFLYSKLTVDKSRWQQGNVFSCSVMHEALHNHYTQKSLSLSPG
light: DIVLTQSPATLSVSPGERATISCRASQRVSSSTYSYMHWYQQKPGQPPKLLIKYASNLESGVPARFSGSGSGTDFTLTISSVEPEDFATYYCQHSWEIPPTFGGGTKLEIKRTVAAPSVFIFPPSDEQLKSGTASVVCLLNNFYPREAKVQWKVDNALQSGNSQESVTEQDSKDSTYSLSSTLTLSKADYEKHKVYACEVTHQGLSSPVTKSFNRGEC
B2: TNX05 anti-CD154 monoclonal antibody (antibody)
heavy: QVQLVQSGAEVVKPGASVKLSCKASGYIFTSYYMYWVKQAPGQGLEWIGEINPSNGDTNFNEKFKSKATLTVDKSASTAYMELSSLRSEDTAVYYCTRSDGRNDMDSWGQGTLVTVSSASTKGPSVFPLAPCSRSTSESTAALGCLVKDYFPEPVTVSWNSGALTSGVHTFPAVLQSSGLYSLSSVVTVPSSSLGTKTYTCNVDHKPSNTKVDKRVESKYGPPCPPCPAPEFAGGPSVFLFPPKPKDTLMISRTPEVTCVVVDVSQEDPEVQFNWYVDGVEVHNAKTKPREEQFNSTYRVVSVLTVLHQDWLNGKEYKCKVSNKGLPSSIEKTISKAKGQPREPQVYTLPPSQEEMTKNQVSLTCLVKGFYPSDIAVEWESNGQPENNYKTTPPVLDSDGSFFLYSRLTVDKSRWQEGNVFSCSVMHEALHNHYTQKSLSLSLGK
light: B1 light
B3: TNX01 anti-CD154 monoclonal antibody (antibody)
heavy: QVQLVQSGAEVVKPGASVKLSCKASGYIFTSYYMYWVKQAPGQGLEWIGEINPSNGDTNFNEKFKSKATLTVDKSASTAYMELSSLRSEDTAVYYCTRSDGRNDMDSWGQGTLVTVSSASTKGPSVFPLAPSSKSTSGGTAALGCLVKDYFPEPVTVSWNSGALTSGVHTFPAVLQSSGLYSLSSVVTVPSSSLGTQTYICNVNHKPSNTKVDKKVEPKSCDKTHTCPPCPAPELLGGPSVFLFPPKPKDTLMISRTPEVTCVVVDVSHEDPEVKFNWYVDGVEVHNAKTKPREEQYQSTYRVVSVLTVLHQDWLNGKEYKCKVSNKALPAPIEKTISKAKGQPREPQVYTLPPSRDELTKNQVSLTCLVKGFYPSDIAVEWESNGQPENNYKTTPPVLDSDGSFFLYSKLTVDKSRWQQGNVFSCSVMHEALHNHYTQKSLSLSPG
light: B1 light
B4: TNX03 anti-CD154 monoclonal antibody (antibody)
heavy: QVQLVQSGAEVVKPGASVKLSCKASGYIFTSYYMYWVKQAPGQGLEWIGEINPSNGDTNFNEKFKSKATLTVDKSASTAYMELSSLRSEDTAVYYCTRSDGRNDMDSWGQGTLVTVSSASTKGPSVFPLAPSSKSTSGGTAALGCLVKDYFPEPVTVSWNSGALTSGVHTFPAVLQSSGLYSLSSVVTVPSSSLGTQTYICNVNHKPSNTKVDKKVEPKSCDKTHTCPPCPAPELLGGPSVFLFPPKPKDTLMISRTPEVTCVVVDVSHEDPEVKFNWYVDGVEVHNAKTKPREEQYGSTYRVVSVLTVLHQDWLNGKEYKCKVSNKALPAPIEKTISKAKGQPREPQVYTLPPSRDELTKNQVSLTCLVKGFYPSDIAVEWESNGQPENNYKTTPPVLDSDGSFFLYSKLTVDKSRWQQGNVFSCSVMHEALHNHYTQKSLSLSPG
light: B1 light
B5: TNX04 anti-CD154 monoclonal antibody (antibody)
heavy: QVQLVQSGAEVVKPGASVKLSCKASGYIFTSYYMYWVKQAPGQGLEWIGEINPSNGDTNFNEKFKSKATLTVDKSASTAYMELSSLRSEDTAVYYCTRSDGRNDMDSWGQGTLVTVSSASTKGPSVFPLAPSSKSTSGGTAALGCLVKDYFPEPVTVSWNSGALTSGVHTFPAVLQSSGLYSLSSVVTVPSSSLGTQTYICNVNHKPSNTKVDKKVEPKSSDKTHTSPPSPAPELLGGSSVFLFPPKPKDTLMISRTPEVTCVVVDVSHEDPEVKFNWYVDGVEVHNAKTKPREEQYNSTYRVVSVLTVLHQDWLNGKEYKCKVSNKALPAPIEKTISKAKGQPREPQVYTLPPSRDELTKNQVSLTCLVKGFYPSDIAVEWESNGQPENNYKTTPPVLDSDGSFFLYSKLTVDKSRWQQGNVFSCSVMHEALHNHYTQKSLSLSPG
light: B1 light
B6: D1.1 (ligand)
chain: MIETYNQTSPRSAATGLPISMKIFMYLLTVFLITQMIGSALFAVYLHRRLDKIEDERNLHEDFVFMKTIQRCNTGERSLSLLNCEEIKSQFEGFVKDIMLNKEETKKENSFEMQKGDQNPQIAAHVISEASSKTTSVLQWAEKGYYTMSNNLVTLENGKQLTVKRQGLYYIYAQVTFCSNREASSQAPFIASLCLKSPGRFERILLRAANTHSSAKPCGQQSIHLGGVFELQPGASVFVNVTDPSQVSHGTGFTSFGLLKL
B7: TNX06 anti-CD154 monoclonal antibody (antibody)
heavy: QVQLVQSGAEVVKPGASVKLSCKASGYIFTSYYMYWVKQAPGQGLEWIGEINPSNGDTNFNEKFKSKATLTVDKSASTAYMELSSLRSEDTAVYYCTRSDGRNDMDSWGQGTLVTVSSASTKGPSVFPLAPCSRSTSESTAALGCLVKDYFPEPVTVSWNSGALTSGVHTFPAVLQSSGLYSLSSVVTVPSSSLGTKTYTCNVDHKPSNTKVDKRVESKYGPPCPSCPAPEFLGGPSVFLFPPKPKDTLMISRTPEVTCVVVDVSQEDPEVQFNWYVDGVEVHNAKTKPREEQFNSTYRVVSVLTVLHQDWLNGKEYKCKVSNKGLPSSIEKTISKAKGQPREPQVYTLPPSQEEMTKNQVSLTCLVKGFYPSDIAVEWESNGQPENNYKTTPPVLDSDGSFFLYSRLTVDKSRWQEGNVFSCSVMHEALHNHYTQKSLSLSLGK
light: B1 light
B8: TNX08 anti-CD154 monoclonal antibody (antibody)
heavy: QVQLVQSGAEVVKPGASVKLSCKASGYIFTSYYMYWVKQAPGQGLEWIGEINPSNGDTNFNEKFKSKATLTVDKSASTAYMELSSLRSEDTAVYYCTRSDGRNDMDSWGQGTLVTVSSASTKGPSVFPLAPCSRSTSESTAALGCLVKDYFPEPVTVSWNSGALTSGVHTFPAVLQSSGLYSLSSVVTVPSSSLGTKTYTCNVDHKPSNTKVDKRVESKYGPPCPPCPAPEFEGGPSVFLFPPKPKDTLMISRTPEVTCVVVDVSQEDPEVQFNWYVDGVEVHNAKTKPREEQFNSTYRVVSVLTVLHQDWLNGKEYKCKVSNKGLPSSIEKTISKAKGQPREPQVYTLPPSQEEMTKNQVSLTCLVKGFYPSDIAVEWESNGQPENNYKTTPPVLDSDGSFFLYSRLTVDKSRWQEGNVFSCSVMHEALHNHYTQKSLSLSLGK
light: B1 light
B9: TNX09 anti-CD154 monoclonal antibody (antibody)
heavy: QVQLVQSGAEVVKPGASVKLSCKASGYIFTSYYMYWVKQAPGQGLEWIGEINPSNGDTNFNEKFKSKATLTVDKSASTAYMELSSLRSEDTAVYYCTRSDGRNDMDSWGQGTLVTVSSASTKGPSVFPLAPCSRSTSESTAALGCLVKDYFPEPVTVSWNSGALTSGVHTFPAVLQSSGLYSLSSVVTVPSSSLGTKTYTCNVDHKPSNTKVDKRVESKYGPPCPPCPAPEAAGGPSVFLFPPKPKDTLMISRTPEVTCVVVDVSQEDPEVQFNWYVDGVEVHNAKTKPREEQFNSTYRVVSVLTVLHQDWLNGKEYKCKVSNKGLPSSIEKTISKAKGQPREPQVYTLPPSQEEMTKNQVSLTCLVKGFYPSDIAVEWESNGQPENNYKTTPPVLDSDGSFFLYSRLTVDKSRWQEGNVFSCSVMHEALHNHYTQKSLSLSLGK
light: B1 light
B10: TNX12 anti-CD154 monoclonal antibody (antibody)
heavy: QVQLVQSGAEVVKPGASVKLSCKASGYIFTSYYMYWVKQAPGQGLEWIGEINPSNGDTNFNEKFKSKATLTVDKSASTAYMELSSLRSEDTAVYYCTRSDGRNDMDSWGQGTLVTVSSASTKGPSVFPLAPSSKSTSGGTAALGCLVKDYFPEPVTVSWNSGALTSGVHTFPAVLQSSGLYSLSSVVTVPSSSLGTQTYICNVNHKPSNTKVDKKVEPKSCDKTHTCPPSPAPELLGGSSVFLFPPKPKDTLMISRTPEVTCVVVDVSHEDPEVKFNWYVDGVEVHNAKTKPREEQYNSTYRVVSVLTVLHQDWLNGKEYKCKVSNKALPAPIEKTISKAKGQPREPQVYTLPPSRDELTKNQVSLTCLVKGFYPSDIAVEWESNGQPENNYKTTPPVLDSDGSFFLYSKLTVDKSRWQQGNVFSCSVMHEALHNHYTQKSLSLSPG
light: B1 light
B11: TNX10 anti-CD154 monoclonal antibody (antibody)
heavy: not shown
light: B1 light
B12: TNX07 anti-CD154 monoclonal antibody (antibody)
heavy: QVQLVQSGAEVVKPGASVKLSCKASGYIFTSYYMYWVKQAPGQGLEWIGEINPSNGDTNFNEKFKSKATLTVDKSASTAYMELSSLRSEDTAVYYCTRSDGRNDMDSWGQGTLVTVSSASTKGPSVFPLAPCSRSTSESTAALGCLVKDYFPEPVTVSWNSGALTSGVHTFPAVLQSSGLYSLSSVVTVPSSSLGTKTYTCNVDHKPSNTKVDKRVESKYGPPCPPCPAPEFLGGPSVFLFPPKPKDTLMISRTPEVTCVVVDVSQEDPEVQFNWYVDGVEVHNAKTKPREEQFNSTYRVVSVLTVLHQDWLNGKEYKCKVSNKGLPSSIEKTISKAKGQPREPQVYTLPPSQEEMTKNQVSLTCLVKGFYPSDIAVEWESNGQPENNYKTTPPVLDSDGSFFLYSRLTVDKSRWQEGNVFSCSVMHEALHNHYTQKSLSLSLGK
light: B1 light
B13: TNX13 anti-CD154 monoclonal antibody (antibody)
heavy: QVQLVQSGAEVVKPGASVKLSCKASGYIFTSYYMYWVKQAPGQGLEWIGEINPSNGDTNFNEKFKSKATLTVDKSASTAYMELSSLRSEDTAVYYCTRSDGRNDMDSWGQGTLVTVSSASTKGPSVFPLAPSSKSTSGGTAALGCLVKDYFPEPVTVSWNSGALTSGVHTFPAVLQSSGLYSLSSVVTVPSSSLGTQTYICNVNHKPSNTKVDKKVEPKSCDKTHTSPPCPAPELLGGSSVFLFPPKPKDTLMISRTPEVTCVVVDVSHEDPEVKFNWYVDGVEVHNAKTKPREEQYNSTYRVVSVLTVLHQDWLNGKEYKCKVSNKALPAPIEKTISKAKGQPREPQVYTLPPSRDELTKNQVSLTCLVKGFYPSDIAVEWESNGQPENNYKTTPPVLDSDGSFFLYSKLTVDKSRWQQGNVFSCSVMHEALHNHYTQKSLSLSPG
light: B1 light
B14: TNX11 anti-CD154 monoclonal antibody (antibody)
heavy: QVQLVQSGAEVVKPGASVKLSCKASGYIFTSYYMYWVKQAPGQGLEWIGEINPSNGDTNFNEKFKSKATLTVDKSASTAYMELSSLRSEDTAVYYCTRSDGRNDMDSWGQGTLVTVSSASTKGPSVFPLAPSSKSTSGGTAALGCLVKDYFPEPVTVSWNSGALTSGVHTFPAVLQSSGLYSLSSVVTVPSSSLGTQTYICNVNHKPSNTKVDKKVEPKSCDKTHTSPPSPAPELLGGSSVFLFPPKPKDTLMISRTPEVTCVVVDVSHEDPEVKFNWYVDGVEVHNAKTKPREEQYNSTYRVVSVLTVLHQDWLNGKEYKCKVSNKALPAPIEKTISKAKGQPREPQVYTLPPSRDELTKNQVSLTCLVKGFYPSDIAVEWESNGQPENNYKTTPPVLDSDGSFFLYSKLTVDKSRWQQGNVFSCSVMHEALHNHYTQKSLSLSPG
light: B1 light

Biological target: T1, FcγRIA (CD64)
Assay: SPR; avid

Kd [nM]	Binder
0.0288	B1
8.8	B2
56	B3
89.8	B4
0.309	B5

Each binder was assayed against Mouse anti hCD40L (assay: FACS cell binding; apparent Kd).

Kd [µM]	Binder
0.00039	B6

The binders below were run against T4, CD16aV (FcγRIIIaV) (UniProt P08637 17-208) (assay: SPR).
T4 sequence (P08637 17-208 F176V): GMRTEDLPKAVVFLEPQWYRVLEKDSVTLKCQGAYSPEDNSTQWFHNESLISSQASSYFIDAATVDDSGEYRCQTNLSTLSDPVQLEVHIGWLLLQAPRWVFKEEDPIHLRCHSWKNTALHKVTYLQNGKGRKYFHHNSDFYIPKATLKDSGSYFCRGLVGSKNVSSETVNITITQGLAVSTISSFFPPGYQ

Kd [µM]	Binder
0.32	B1
6.04	B2
> 5	B3
> 5	B4
18.7	B5

Biological target: T2, CD32aH (FcγRIIaH)
Assay: SPR

Kd [µM]	Binder
0.5	B1
7.17	B2
> 12	B3
> 12	B4
36.6	B5

Biological target: T3, CD32bF (FcγRIIbF)
Assay: SPR

Kd [µM]	Binder
0.91	B1
4.9	B2
> 12	B3
> 12	B4
18	B5

What follows are binders tested against T5, CD16aF (FcγRIIIaF) (UniProt P08637 17-208) (assay: SPR).
T5 sequence (P08637 17-208): as the sequence (P08637 17-208 F176V) above, with V160F counted along it

Kd [µM]	Binder
1.7	B1
8.11	B2
> 5	B3
> 5	B4
> 5	B5

What follows are binders tested against Mouse_anti-CD40L (assay: flow cytometry).

Kd [µM]	Binder
0.000339	B6

Biological target: T4, CD16aV (FcγRIIIaV)
Assay: SPR
Remark: another data set of the same source

Kd [µM]	Binder
0.333	B1
2.09	B7
3.56	B8
3.77	B9
> 5	B10
4.63	B11
3.01	B12
> 5	B13
> 5	B14

Biological target: T2, CD32aH (FcγRIIaH)
Assay: SPR
Remark: another data set of the same source

Kd [µM]	Binder
0.525	B1
3.19	B7
9.03	B8
> 12	B9
> 12	B10
> 12	B11
3.01	B12
8.95	B13
> 12	B14

Biological target: T3, CD32bF (FcγRIIbF)
Assay: SPR
Remark: another data set of the same source

Kd [µM]	Binder
1.03	B1
2.53	B7
4.2	B8
> 12	B9
8.41	B10
> 12	B11
2.45	B12
5.84	B13
> 12	B14

Biological target: T5, CD16aF (FcγRIIIaF)
Assay: SPR
Remark: another data set of the same source

Kd [µM]	Binder
1.81	B1
3.17	B7
4.44	B8
> 5	B9
> 5	B10
> 5	B11
3.66	B12
> 5	B13
> 5	B14

Biological target: T1, FcγRIA (CD64)
Assay: SPR

Kd [µM]	Binder
0.000285	B7
0.103	B8
0.147	B9
0.000259	B10
0.0687	B11
0.000253	B12
0.000222	B13
0.000479	B14

Biological target: T1, FcγRIA (CD64)
Assay: SPR; avid
Remark: another data set of the same source

Kd [µM]	Binder
0.0087	B2
0.0765	B3
0.092	B4
0.00033	B5
